The text below walks through data of the domain aggregation screens of Martell et al. (2025).

A short description of the data set: soluble fraction after stress (log2 fold change); higher = more stays soluble; pooled small domains, quantitative proteomics. The conditions noted are these: stress: pH 4. Summed up:
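Aggregation propensity is read out as the fold change in how much of each domain remains soluble after acid stress. The custom small-domain libraries were pooled, held at pH 4 and analysed with high-throughput quantitative proteomics. On the log2 scale used, higher values mean more of the domain stayed soluble.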

For “HMNGSVLVTGGSVWIRAGASKETDGLGIVHKGDVLKRSGSDASGWRGVVYEGQNAFISAKYSSI”, the “soluble fraction (log2)” value was 0.424.
On to “HMNGTEAIRRYIDQFASKHATTPRMLKLNERKQLIQELKNNGLLEIKKAVETVAQHLGISRASAYLYVKE”, for which the “soluble fraction (log2)” value was at least 0.43.
The result for “HMNGVPDMSPVPEGARNSTLHAWAFGRLKNHPDNETGIREDLFRRGHASGLQDAELDQIWKSIKRTL” reads at least 0.43; that for “HMNGVSNETLIQKSALYEELNQPDLALKMINTALKKDSVNIEILHRLVTLLMSQEKNEEAILYNQKIIDH”, -0.0993.
As for “HMNHSITLTERKNLLITGVKKIENFDKEEFLIETTMGFLVVKGDGLELIKLDTISGNVSIKGIVNGFTYID”, the “soluble fraction (log2)” value turned out to be 0.0772.
The result for “HMNIAAVIGQTGVLQDDLKAGEQGTVKADNKLWTAVLAEGEEAVKKEERVDIVAVEGVKLIVRRNI” reads -1.14; that for “HMNIDEIFLTKNEIYFSFEYQKKSQLDRYSKIISLDHRIDKNTAYAYANKKQFLNFINLNIDYKIIDNSF”, -1; that for “HMNIDEIIGKKAVVIESIDNLQGTGKVRYQGMEWTARAEEENDRIEKDAEVEIIAVKGVKLIVKMK”, -0.19.
In the case of “HMNIDNTWQPSEDVVEILTRSGINEDFINELIPEFIVYWTERPGTLVSYNSKFIEHVRLKWAQHSAEI”, the “soluble fraction (log2)” value is -1.04.
On to “HMNIDVAAEKQQLGPNADQIVKGTVTWMQGLVAKGIWSETDFEEGKIFTATADGINAINKIRRYYGEQT”, for which the “soluble fraction (log2)” value is -0.439.
The figure for “HMNIEDFKDKVKELKQYTYQELVEDVKLKTDRADVILPASKIYLEAMQQAKVDSIIVPKVGLAEGVAR” is 0.149.
Regarding “HMNIEEQVVAEVLVKDFMKQLTPRDIHILELRKNGYTYQEIAGQLGYHTHSAVKKRVDRLAEQWLAYTQGH”, the “soluble fraction (log2)” value was -0.739.
Consider “HMNIFAHQIGKLRTERHLSQTDVAKRLYVSRQAVSKWENGDAEPSLDNLIALAKLFNVSLDNLITGQ”, for which the “soluble fraction (log2)” value worked out at 0.138.
Regarding “HMNIGVEQIEQMERGALITLWQELIDKPLPRHMSIVFLRQVLAFEVQSKQNGGLPRGFITLLNKQAD”, the “soluble fraction (log2)” value is -0.868.
Regarding “HMNIKITKSKNSEHYSIIYNTKINGKRTSKIYENIGNFEKLKLRAGEQEPIEWLKNYVSELNKKQKEDT”, the “soluble fraction (log2)” value worked out at 0.22.
The figure for “HMNIKYDFPTNSPLEMMRNLFDSNSQIINDLKDGFAMANSLNEQGLANFFAERIDKHQFWSWQLSASL” is 0.177; for “HMNILDPTVMKNILDKNHEEFIAIYESAPLGQKTIINSMVFDKRLNGENVDANILMYLQNKTNIDYINIEP” it is -1.47; for “HMNILNYIIENENQEVRVDKFLSDTIEDMSRSSVASIIEDGGLLVNDKLQNKKYKLKIGDKVQFTVPDPV” it is -0.121.
The result for “HMNILVAISDTGEIWINKRRVDARAVQANIERLHAENPQGTVVIQADKQATTETLIKVMDASRAAGVFDVS” reads -0.759; that for “HMNINLDINTYTVKELEKLLKLEVPYSDNNVFEKKNLMVKMIQTSTIAETKKEELYIFLDNIYNRLTNNLE”, -0.942.
Turning to “HMNISLGALVTITDQKGRSHTVTLESGKQFFTNHGSINHDEIIKAGEGGVVASSSGMLYTIFTP”, the “soluble fraction (log2)” value was -0.551.
On to “HMNISRESLIGQILATLNKNPEEGFNYKQIAKRLNITDSPGRQMISDLLRELSKHGSLQEISHGKYKIKV”, for which the “soluble fraction (log2)” value was found to be 0.215.
As to “HMNITHEINVKSKSKIDFLENNKNLAQFFLTKNPNQFNYNLVFSDKSELNIIKEKIESHKDIEDIDIRYG”, the “soluble fraction (log2)” value was -1.11.
In the case of “HMNIVINVDTPTFEQMKATYQAPGTLPAGASFHAKLKGVTVTGYTKSHKVMFQGALANQEAARWQ”, the “soluble fraction (log2)” value is at least 0.43.
As for “HMNIYFNIEDAVANAVVENGKMSAAIYEKNVDTGEVAKLAEVSMPVMGGNINITKTLLTKALISQLP”, the “soluble fraction (log2)” value was -0.713.
Turning to “HMNKAYLTVADMKKDKSLKNGDVVRTLGYYGYNDGDGAVYQIKDSHPEDYHIRLDNGLDAEQINY”, the “soluble fraction (log2)” value was found to be 0.174.
The result for “HMNKEHINLDSSKFLSLLNKTKISMSNDETRHYLNGIYIHPTVSNKSSYLTGVATDSHRLSSSSIPVD” reads -0.311; that for “HMNKMIIELGEKLKALRTENHLRQDQVARLVNVEKSSISMYETGMRQPSYTTLVRLADVFNVTTDYLLGRK”, 0.307; that for “HMNKPTSMYKLRLLLKHYHAGASKRWMADVLDISRSTLNVYLARIESLNLAFEEWEALSDLEVSRLLINP”, -0.852.
The result for “HMNKVAQFYRELVSTLSERLRNGERDIDALVEQARVRISQSGELTQSEIENVIRAVRRDLEEFALSYEE” reads -1.73; that for “HMNLAISAYQQLKSDIIRGVYAPGEKLLMSRLKVRYGLGIGPMREALSQLVSEHLVTAASQRGYRVAGM”, 0.129.
The result for “HMNLAPLLTEYVQINFRRASEMKTYLEQANLISERGFLLADDQTNILMVRETGASIEEIRRTLNRF” reads -1.61; that for “HMNLFKAPMPGLIRTIVVAEGQEVKKGDVILILEAMKMENALKSPADLVVKSIKVQQGQAVEKNQLLIEF”, -0.14.
As to “HMNLGNLLKIYRKNSLLTQQQVADALNINRTTYTYYETGKTEPSIDTLHKLIKIFGITYDDLL”, the “soluble fraction (log2)” value is -0.337.
Regarding “HMNLKDINLNVRHYKIIDFVREHGYASIETLTRQFGVSAQTVRRDIIYLDNQAVLKRHHGGVGTLPG”, the “soluble fraction (log2)” value is -0.723.
The figure for “HMNLPTSGVDALTPAERRVARMAGDGQSNREIAQTLFVTRKTVEIHLTSVYRKLGIASRAELSARL” is -0.59.
On to “HMNLQGIISQKAIVTQTIEPYETGVAKLNGEEWTAMSKDETRIEAGKLVEVVAIEGVKLIVKEVS”, for which the “soluble fraction (log2)” value was -0.295.
As to “HMNLVELKHAEEFNTLIIQDIGGRMKPAHTLASELVRKVFHNDDFNGIDPRKVFLSIIENSKVWFNVPFI”, the “soluble fraction (log2)” value is -0.361.
For “HMNLYENLATHVKNAIRQGVYQPGDRLPSVRRLSEQHRVSQNTAVSAYRLLESHGWLEARPQSGFFARHP”, the “soluble fraction (log2)” value was found to be 0.297.
The result for “HMNLYERFPIHELWKETFNETLDEEEHITFITSEFKPENIVLGQGFIAAPSKKDAVDWLKVIRTVLIFYDS” reads -1.61; that for “HMNMANFARIRLILELHDRGMSQDEISRSRHMSRSTITTVLRTARKKGITYAGIRKLDDAALQKLFFPDR”, 0.22; that for “HMNMDLGHSISKLRTDANLTQEKFAQILNVSRQTVQKWEYGEALPDIHNIIKIAKFFNISLDALVLRS”, -0.222.
For the sequence “HMNMIGDVIRNLRTVSSMTQTELGQRMGVIKQTISNWEKNISTPSIDAIVKLSSIFNVPTDYLL”, the “soluble fraction (log2)” value was -0.178.
For “HMNMMESNLFAVYDNDDIVKTLRQGAMEIDSLIRLMGKSSAEVLEKLTTMELQGIITRSGNIIALNN”, the “soluble fraction (log2)” value is -1.38.
In the case of “HMNMNDIKFGKYLKRVRKKYNFSKEYVANILKVKESLVSDWESGRLTLNDEYMEKLSLFYGVNLYKK”, the “soluble fraction (log2)” value was -0.123.
In the case of “HMNMPDVTVEWVKEQQAKFGLTDSDLAKSVNIDNANLARIFNQRGLTKIHKALFYYFFRAYGLQ”, the “soluble fraction (log2)” value was -1.1.
As for “HMNMRVLSEQPNKKSYQDGNLRLKVFGASFKKSDILNEALNQARVEETGLQIPKLLEVKQIDGQWTIVTE”, the “soluble fraction (log2)” value is -0.393.
Consider “HMNMVSGHLQVKKGYYYAVLSFYDSKNKRHVKYISTGLPEKGNKRKAEAELVKIRNAFEPPAE”, for which the “soluble fraction (log2)” value is -0.0995.
As to “HMNNESEGAIMLRQYSSLSAYLTKYNIDVNSKKAQQYASSLKLAQEKGSAEGQKYLSSISSELDD”, the “soluble fraction (log2)” value was 0.00542.
Turning to “HMNNIIEQIKADIKKLEEKLDKSSENALNKLEKDYSSLSTESKKKLDDAGYGARIKALRVKFAALSTQ”, the “soluble fraction (log2)” value is at least 0.43.
As for “HMNNISKKIKELREQNNITQNKLANDLFIKQQTVAQWENGSRALKADSIISLAKYFNVSTDYLLGLTEN”, the “soluble fraction (log2)” value is -0.634.
As for “HMNNLKTKELSKIGYTNDKARSLVISIIPKHFKYHSKSEIIELLTNIKNKPEDYVSDEILGKIAETFMEKI”, the “soluble fraction (log2)” value was -1.19.
On to “HMNNLSEELNVTFPRTRDQLLNILHYVQHKYGYISKVSMQEIGNHIKMPVSEIYGTVTSYSEFKI”, for which the “soluble fraction (log2)” value was -0.965.
For the sequence “HMNNLTEEAINHLVLEVKNVLLTDALFLGKATDSQLMLRIKETIDQRNGQYNIGMNDRERIARRVFARLR”, the “soluble fraction (log2)” value was at least 0.43.
Turning to “HMNNLVGKTKVLKSNTNIYAYKTMSGKFYSYLPNTRVRVLQDLGYINYIEVIATKRRGYVYENVY”, the “soluble fraction (log2)” value is -0.165.
Turning to “HMNNNIFVYPNPSINYINIDSDEEIWKLEIIQMSGEKINILPFSKRIDISFLSKGLYILNFNNYYIKFIK”, the “soluble fraction (log2)” value was -0.937.
Regarding “HMNNQIFGLKFRQLRKQQHITLAKAAAGITSRQSLGNWETGKGELAFEKVLLLLKKINVQPIDFLESSIS”, the “soluble fraction (log2)” value came to 0.264.
For the sequence “HMNNQILYERLRDLRERNHFTQAFVSSKLNIGRATYSNYERGKRTPSLDVIMDLASFYKVPFTYF”, the “soluble fraction (log2)” value was determined as 0.113.
For “HMNNQMTFSKFLNEVDAGRVVEVEIQGNNIKGVLADGNRFNTFSPNYPNLVEKLSDKGVSITAAPK”, the “soluble fraction (log2)” value came to 0.205.
With “HMNPASVLDGLKITSFSPTRAIVAGPGGSRIVFDNEAVVLGGIEWDVHIQRNGIEFTSQGQTVLLLFDRS”, the “soluble fraction (log2)” value was -0.514.
In the case of “HMNPDDEMLLTYLTKLLVDKQFIVNSNDIFEYILRRVDRTYDGIYDIVSKLDVLSLEKKRQLTIPLIKEI”, the “soluble fraction (log2)” value turned out to be 0.103.
For “HMNPETIHNDYKAFIKFAFSGLSYYSKVWNQNREMITPGLLETLWQKYRHLSIGEIETILEKIIKEG”, the “soluble fraction (log2)” value was -1.24.
The result for “HMNPGNTESFPVYQKRLGEIIQTLAGKKGQDINSPEVKELVGEYDFLTKQMFQLPDATSMVMEIATAYRN” reads -0.224.
As to “HMNPKTELMVYLKKRDEWVASQILSDVLQVSTRTIRKFVKEINMDYQTENVILSSSKGYKLNQNLLSSL”, the “soluble fraction (log2)” value was -0.281.
For the sequence “HMNPLPALLRYFRQKAGLTQQDVAAALSISRSGYANYEEGRNIPNIEQAIKLSELLNHDFLYAYTLSS”, the “soluble fraction (log2)” value is -0.749.
For “HMNPNYIKKLREKNQLTQEYLAAQIGVSRPTYAQIEQGQRGLTVTEAKKMADIFSLALDDFLAEKN”, the “soluble fraction (log2)” value was -0.442.
For “HMNPSIALHDWLQSSEFKGSINLFAAALGMNPRTVEAWVYGRSTPSRRFWAKLYQITNLSRFRL”, the “soluble fraction (log2)” value came to 0.22.
For “HMNPYLWQRVRLLFSNVGVINNSATVDLVFSAPKGVLTEDLANNFSAALVKKGKEELGLDDIKITISVIPN”, the “soluble fraction (log2)” value was -2.21.
